# Measured values taken from patent EP4725969A1 (Latticon (Suzhou) Biopharmaceuticals Co., Ltd., dated 2024).
# Target: T1, recombinant human HER2 extracellular domain protein (human, UniProt P04626 23-652)
# T1 construct: range 23-652; Range is printed for the immunogen/panning protein; also called ErbB2; recombinant HER2 protein
# Assay: BLI, Protein A capture
Kd [nM],koff [s⁻¹],kon [M⁻¹ s⁻¹],Binder
5.38,0.000543,101000,"2126-Hu-H22 (antibody, IgG1, V domains shown, IgG1/Cκ) VH: QVQLVQSGGELKKPGASVKVSCKASGYTFTDYSMHWVRQAPGQGLEWMGWINTETGEPTYADDFKGRFVFSLDTSVSTAYLQISSLKAEDTAVYFCVRVGRYDYAMDYWGQGTTVTVSS VL: DIQMTQSPSSLSASVGDRVTITCKASQDVYTAVAWYQQKPGKAPKLLINSASYRYTGVPSRFSGSGSGTDFTLTISSLQPEDFATYYCQQHYSTPPTFGGGTKVEIK"
11.1,0.00119,107000,"2126-Hu-H26 (antibody, IgG1, name in Kabat numbering, V domains shown, IgG1/Cκ) VH: QVQLVQSGSELKKPGASVKVSCKASGYTFTDYSMHWVRQAPGQGLEWMGWINTDTGEPTYADDFKGRFVFSLDTSVSTAYLQISSLKAEDTAVYFCVRVGRYDYAMDYWGQGTTVTVSS VL: DIQMTQSPSSLSASVGDRVTITCKASQDVYTAVAWYQQKPGKAPKLLINSASYRYTGVPSRFSGSGSGTDFTLTISSLQPEDFATYYCQQHYSTPPTFGGGTKVEIK"
1.67,0.000164,97900,"2126-Hu-H27 (antibody, IgG1, V domains shown, IgG1/Cκ) VH: QVQLVQSGSELKKPGASVKVSCKASGYTFTDYSMHWVRQAPGQGLEWMGWINTGTGEPTYADDFKGRFVFSLDTSVSTAYLQISSLKAEDTAVYFCVRVGRYDYAMDYWGQGTTVTVSS VL: DIQMTQSPSSLSASVGDRVTITCKASQDVYTAVAWYQQKPGKAPKLLINSASYRYTGVPSRFSGSGSGTDFTLTISSLQPEDFATYYCQQHYSTPPTFGGGTKVEIK"
2.61,0.000246,94300,"2126-Hu-H29 (antibody, IgG1, V domains shown, IgG1/Cκ) VH: QVQLVQSGSELKKPGASVKVSCKASGYTFTDYSMHWVRQAPGQGLEWMGWINTITGEPTYADDFKGRFVFSLDTSVSTAYLQISSLKAEDTAVYFCVRVGRYDYAMDYWGQGTTVTVSS VL: DIQMTQSPSSLSASVGDRVTITCKASQDVYTAVAWYQQKPGKAPKLLINSASYRYTGVPSRFSGSGSGTDFTLTISSLQPEDFATYYCQQHYSTPPTFGGGTKVEIK"
7.57,0.000749,99000,"2126-Hu-H25 (antibody, IgG1, V domains shown, IgG1/Cκ) VH: QVQLVQSGSELKKPGASVKVSCKASGYTFTDYSMHWVRQAPGQGLEWMGWINTNTGEPTYADDFKGRFVFSLDTSVSTAYLQISSLKAEDTAVYFCVRVGRYDYAMDYWGQGTTVTVSS VL: DIQMTQSPSSLSASVGDRVTITCKASQDVYTAVAWYQQKPGKAPKLLINSASYRYTGVPSRFSGSGSGTDFTLTISSLQPEDFATYYCQQHYSTPPTFGGGTKVEIK"
7.7,0.00083,108000,"2126-Hu-H24 (antibody, IgG1, V domains shown, IgG1/Cκ) VH: QVQLVQSGSELKKPGASVKVSCKASGYTFTDYAMHWVRQAPGQGLEWMGWINTETGEPTYADDFKGRFVFSLDTSVSTAYLQISSLKAEDTAVYFCVRVGRYDYAMDYWGQGTTVTVSS VL: DIQMTQSPSSLSASVGDRVTITCKASQDVYTAVAWYQQKPGKAPKLLINSASYRYTGVPSRFSGSGSGTDFTLTISSLQPEDFATYYCQQHYSTPPTFGGGTKVEIK"
3.08,0.00035,114000,"2126-Hu-H28 (antibody, IgG1, V domains shown, IgG1/Cκ) VH: QVQLVQSGSELKKPGASVKVSCKASGYTFTDYSMHWVRQAPGQGLEWMGWINTYTGEPTYADDFKGRFVFSLDTSVSTAYLQISSLKAEDTAVYFCVRVGRYDYAMDYWGQGTTVTVSS VL: DIQMTQSPSSLSASVGDRVTITCKASQDVYTAVAWYQQKPGKAPKLLINSASYRYTGVPSRFSGSGSGTDFTLTISSLQPEDFATYYCQQHYSTPPTFGGGTKVEIK"
5.9,0.000623,106000,"2126-Hu-H23 (antibody, IgG1, V domains shown, IgG1/Cκ) VH: QVQLVQSGSELKKPGASLKVSCKASGYTFTDYSMHWVRQAPGQGLEWMGWINTETGEPTYADDFKGRFVFSLDTSVSTAYLQISSLKAEDTAVYFCVRVGRYDYAMDYWGQGTTVTVSS VL: DIQMTQSPSSLSASVGDRVTITCKASQDVYTAVAWYQQKPGKAPKLLINSASYRYTGVPSRFSGSGSGTDFTLTISSLQPEDFATYYCQQHYSTPPTFGGGTKVEIK"
